Laboratory results from patent publication US20240182536A1.

How the values were obtained:
[1] = target: T1, mouse IL-18 binding protein (mouse) (UniProt Q9Z0M9); experiment: cell-based or functional assay
T1 sequence (looked up): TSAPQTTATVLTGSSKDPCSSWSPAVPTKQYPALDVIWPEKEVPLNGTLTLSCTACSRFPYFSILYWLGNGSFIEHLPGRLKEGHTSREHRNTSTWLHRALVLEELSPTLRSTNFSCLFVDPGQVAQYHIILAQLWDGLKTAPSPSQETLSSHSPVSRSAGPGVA

[2] = target: T2, mouse IL-18 receptors on PathHunter U2OS mIL18-NF-kb reporter cells (mouse) (UniProt Q61098); experiment: cell-based or functional assay
T2 sequence (looked up) 1: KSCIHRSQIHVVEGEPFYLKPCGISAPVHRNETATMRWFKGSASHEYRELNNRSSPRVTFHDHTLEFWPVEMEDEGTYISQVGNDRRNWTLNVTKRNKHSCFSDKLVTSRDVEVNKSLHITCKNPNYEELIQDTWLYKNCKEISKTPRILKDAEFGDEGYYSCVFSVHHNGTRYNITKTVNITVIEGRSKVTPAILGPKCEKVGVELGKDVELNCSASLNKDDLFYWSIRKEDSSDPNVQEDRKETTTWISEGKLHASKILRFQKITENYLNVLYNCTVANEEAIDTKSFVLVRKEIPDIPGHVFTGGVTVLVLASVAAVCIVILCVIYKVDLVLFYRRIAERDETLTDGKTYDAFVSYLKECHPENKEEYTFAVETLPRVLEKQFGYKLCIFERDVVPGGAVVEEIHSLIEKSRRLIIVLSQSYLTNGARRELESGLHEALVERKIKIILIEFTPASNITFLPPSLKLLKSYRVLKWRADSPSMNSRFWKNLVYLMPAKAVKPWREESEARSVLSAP
T2 sequence (looked up) 2: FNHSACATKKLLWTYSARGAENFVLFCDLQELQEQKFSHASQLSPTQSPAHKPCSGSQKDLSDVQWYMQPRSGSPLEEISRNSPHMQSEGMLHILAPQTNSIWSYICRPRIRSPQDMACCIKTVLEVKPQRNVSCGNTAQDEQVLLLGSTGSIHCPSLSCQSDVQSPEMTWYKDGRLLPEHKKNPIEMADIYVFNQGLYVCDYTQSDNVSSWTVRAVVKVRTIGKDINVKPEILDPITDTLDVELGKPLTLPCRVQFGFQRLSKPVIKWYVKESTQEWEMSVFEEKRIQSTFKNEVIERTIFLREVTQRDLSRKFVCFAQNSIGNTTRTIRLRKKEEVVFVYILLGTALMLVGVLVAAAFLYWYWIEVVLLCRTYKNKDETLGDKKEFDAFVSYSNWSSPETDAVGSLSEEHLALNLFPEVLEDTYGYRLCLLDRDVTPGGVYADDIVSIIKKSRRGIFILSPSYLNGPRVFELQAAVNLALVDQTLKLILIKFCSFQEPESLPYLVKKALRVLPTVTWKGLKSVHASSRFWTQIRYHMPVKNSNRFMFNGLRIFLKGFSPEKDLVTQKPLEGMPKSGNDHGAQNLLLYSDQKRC

mouse IL-18 reporter assay EC50, +Mouse IL-18BP 50 nM [1]: > 500 pM | mouse IL-18 reporter assay EC50, without mouse IL-18BP [2]: 0.61 pM
B1: WT mouse IL-18 (ligand, UniProt P70380 36-192, looked up)
chain: NFGRLHCTTAVIRNINDQVLFVDKRQPVFEDMTDIDQSASEPQTRLIIYMYKDSEVRGLAVTLSVKDSKMSTLSCKNKIISFEEMDPPENIDDIQSDLIFFQKRVPGHNKMEFESSLYEGHFLACQKEDDAFKLILKKKDENGDKSVMFTLTNLHQS
